How the values were obtained:
Assay in all cases: holdup assay
Parameters in all cases: key: below the threshold = too weak to quantify, mostly under pKd 3.1 to 4
FRMPD3, Q5JV73 = molecular target: FRMPD3, Q5JV73
MAGI2_3, Q86UL8 = molecular target: MAGI2_3, Q86UL8
Inadl_10, Q8NI35 = molecular target: Inadl_10, Q8NI35
DFNB31_3, Q9P202 = molecular target: T1, DFNB31_3, Q9P202
T1 sequence (Q9P202 811-907, limits assumed, looked up): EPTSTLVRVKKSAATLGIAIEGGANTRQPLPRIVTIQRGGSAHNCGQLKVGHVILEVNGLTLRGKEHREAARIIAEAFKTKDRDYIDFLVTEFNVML

DLG3_3, Q92796 = molecular target: T2, DLG3_3, Q92796
T2 sequence (Q92796 374-475, limits assumed, looked up): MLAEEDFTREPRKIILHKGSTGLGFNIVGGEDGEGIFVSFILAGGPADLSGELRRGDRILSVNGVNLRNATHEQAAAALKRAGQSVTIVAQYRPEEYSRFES

SNTB1, Q13884 = molecular target: T3, SNTB1, Q13884
T3 sequence (Q13884 107-205, limits assumed, looked up): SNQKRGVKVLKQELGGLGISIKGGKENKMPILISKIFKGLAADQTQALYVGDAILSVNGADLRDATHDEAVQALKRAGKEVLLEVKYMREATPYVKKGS

TJP1_3, Q07157 = molecular target: TJP1_3, Q07157
Chain of TJP1_3, Q07157 (Q07157 416-512): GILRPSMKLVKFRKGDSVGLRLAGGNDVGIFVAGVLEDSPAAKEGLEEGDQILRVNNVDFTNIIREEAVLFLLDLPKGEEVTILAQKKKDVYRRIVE

GRIP2_4, Q9C0E4 = molecular target: GRIP2_4, Q9C0E4
Chain of GRIP2_4, Q9C0E4 (Q9C0E4 446-548): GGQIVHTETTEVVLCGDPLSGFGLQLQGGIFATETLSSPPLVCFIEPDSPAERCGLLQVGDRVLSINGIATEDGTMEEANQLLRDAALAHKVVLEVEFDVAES

APBA2_1, Q99767 = molecular target: T4, APBA2_1, Q99767
T4 sequence (Q99767 563-664, limits assumed, looked up): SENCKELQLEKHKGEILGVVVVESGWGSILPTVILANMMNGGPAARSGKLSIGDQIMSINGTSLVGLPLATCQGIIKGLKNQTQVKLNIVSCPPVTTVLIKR

FRMPD2_2, Q68DX3 = molecular target: FRMPD2_2, Q68DX3
Chain of FRMPD2_2, Q68DX3 (Q68DX3 944-1038): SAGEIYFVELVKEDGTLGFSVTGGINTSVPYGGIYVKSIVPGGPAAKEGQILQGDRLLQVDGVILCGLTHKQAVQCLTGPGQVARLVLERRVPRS

Inadl_4, Q8NI35 = molecular target: Inadl_4, Q8NI35
Chain of Inadl_4, Q8NI35 (Q8NI35 547-651): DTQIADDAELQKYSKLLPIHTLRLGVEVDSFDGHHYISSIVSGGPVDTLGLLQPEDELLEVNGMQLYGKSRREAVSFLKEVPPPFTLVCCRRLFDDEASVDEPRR

MAGI2_5, Q86UL8 = molecular target: MAGI2_5, Q86UL8
Chain of MAGI2_5, Q86UL8 (Q86UL8 915-1017): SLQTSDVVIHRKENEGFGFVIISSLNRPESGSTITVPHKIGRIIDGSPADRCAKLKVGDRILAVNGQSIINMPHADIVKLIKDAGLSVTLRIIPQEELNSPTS

ARHGAP21, Q5T5U3 = molecular target: T5, ARHGAP21, Q5T5U3
T5 sequence (Q5T5U3 45-169, limits assumed, looked up): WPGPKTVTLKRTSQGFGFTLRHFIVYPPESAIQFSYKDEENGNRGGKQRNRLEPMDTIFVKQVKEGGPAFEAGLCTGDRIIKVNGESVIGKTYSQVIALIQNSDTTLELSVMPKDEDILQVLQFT

GRIP1_4, Q9Y3R0 = molecular target: T6, GRIP1_4, Q9Y3R0
T6 sequence (Q9Y3R0 467-571, limits assumed, looked up): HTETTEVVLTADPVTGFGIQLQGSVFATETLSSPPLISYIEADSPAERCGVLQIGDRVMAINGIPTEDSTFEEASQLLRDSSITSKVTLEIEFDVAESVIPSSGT

APBA1_2, Q02410 = molecular target: T7, APBA1_2, Q02410
T7 sequence (Q02410 742-832, limits assumed, looked up): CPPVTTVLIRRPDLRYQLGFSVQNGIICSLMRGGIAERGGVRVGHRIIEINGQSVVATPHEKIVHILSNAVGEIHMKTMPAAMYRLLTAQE

Inadl_5, Q8NI35 = molecular target: Inadl_5, Q8NI35
Chain of Inadl_5, Q8NI35 (Q8NI35 673-780): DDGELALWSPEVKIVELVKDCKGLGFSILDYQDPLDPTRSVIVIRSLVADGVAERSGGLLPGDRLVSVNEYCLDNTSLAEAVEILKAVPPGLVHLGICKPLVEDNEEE

DLG5_1, Q8TDM6 = molecular target: DLG5_1, Q8TDM6
Chain of DLG5_1, Q8TDM6 (Q8TDM6 617-713): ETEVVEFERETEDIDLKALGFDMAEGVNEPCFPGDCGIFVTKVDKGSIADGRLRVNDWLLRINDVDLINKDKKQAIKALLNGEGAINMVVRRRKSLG

NHERF2_2, Q15599 = molecular target: NHERF2_2, Q15599
Chain of NHERF2_2, Q15599 (Q15599 142-238): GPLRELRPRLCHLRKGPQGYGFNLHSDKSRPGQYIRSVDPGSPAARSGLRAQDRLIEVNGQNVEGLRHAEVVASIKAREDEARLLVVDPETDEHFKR

LNX2_2, Q8N448 = molecular target: T8, LNX2_2, Q8N448
T8 sequence (Q8N448 334-432, limits assumed, looked up): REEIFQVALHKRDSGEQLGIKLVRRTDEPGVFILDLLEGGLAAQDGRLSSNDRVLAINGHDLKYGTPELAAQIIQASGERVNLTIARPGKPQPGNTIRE

PDZRN3_1, Q9UPQ7 = molecular target: T9, PDZRN3_1, Q9UPQ7
T9 sequence (Q9UPQ7 244-349, limits assumed, looked up): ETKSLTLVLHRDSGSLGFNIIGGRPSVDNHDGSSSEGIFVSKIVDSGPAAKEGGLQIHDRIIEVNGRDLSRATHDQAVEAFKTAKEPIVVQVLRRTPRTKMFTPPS

RAPGEF6, Q8TEU7 = molecular target: T10, RAPGEF6, Q8TEU7
T10 sequence (Q8TEU7 525-625, limits assumed, looked up): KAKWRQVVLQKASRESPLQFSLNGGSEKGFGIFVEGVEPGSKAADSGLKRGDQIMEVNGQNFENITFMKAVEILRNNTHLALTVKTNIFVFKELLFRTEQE

HTRA3, P83110 = molecular target: T11, HTRA3, P83110
T11 sequence (P83110 354-453, limits assumed, looked up): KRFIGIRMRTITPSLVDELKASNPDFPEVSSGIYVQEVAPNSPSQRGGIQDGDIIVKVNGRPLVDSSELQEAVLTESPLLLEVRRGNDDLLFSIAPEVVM

LAP2, Q96RT1 = molecular target: LAP2, Q96RT1
Chain of LAP2, Q96RT1 (Q96RT1 other isoform, or with tags, fused parts or gaps): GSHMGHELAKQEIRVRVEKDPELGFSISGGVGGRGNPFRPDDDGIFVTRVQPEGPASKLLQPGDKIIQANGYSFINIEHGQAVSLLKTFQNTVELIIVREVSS

DLG2_3, Q15700 = molecular target: DLG2_3, Q15700
MAGI1_1, Q96QZ7 = molecular target: MAGI1_1, Q96QZ7
Chain of MAGI1_1, Q96QZ7 (Q96QZ7 1-106): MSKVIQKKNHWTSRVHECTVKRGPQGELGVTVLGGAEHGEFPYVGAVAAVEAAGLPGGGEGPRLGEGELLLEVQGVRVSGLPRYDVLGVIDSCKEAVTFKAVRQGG

LNX1_3, Q8TBB1 = molecular target: LNX1_3, Q8TBB1
Chain of LNX1_3, Q8TBB1 (Q8TBB1 500-596): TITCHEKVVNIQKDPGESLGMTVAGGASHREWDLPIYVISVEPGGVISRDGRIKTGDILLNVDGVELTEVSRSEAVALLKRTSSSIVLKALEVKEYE

[1] = plain residues with an end cap or a label only (N-terminal biotin on a linker: gsgsgs; C-terminal amide)
[2] = plain residues with an end cap or a label only (N-terminal biotin on a linker: ttds)
[3] = plain residues with an end cap or a label only (N-terminal biotin on a linker: ahx)

Chain of Inadl_10, Q8NI35 (Q8NI35 1673-1763): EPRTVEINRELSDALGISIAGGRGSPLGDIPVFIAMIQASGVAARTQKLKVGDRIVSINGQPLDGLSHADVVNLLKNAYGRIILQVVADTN
Chain of FRMPD3, Q5JV73 (Q5JV73 12-100): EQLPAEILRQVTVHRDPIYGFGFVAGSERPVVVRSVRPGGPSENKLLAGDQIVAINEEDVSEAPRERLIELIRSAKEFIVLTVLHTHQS
Chain of MAGI2_3, Q86UL8 (Q86UL8 600-682): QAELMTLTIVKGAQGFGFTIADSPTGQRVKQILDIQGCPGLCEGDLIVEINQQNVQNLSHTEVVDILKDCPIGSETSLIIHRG

B1: AXIN1_int, O15169 (peptide)
chain: TLSLTDSSVDGIPPYR
- pKd (FRMPD3, Q5JV73; [1]): below the threshold
- pKd (MAGI2_3, Q86UL8; [1]): below the threshold
- pKd (Inadl_10, Q8NI35; [1]): below the threshold
- pKd (DFNB31_3, Q9P202; [1]): 3.91
- pKd (DLG3_3, Q92796; [1]): below the threshold
- pKd (SNTB1, Q13884; [1]): below the threshold
- pKd (TJP1_3, Q07157; [1]): below the threshold
- pKd (GRIP2_4, Q9C0E4; [1]): below the threshold
- pKd (APBA2_1, Q99767; [1]): below the threshold
- pKd (FRMPD2_2, Q68DX3; [1]): below the threshold
- pKd (Inadl_4, Q8NI35; [1]): below the threshold
- pKd (MAGI2_5, Q86UL8; [1]): below the threshold
- pKd (ARHGAP21, Q5T5U3; [1]): below the threshold
- pKd (GRIP1_4, Q9Y3R0; [1]): below the threshold
- pKd (APBA1_2, Q02410; [1]): below the threshold
- pKd (Inadl_5, Q8NI35; [1]): below the threshold
- pKd (DLG5_1, Q8TDM6; [1]): below the threshold
- pKd (NHERF2_2, Q15599; [1]): below the threshold
- pKd (LNX2_2, Q8N448; [1]): below the threshold
- pKd (PDZRN3_1, Q9UPQ7; [1]): below the threshold
- pKd (RAPGEF6, Q8TEU7; [1]): below the threshold
- pKd (HTRA3, P83110; [1]): below the threshold
- pKd (LAP2, Q96RT1; [1]): below the threshold
- pKd (DLG2_3, Q15700; [1]): 3.67
- pKd (MAGI1_1, Q96QZ7; [1]): below the threshold
- pKd (LNX1_3, Q8TBB1; [1]): below the threshold

B2: DLGAP4, Q9Y2H0 (peptide)
chain: IYVPEAQTRL
- pKd (FRMPD3, Q5JV73; [2]): below the threshold
- pKd (MAGI2_3, Q86UL8; [2]): below the threshold
- pKd (Inadl_10, Q8NI35; [2]): below the threshold
- pKd (DFNB31_3, Q9P202; [2]): below the threshold
- pKd (DLG3_3, Q92796; [2]): below the threshold
- pKd (SNTB1, Q13884; [2]): 4.2
- pKd (TJP1_3, Q07157; [2]): below the threshold
- pKd (GRIP2_4, Q9C0E4; [2]): below the threshold
- pKd (APBA2_1, Q99767; [2]): below the threshold
- pKd (FRMPD2_2, Q68DX3; [2]): below the threshold
- pKd (Inadl_4, Q8NI35; [2]): below the threshold
- pKd (MAGI2_5, Q86UL8; [2]): 3.82
- pKd (ARHGAP21, Q5T5U3; [2]): below the threshold
- pKd (GRIP1_4, Q9Y3R0; [2]): below the threshold
- pKd (APBA1_2, Q02410; [2]): 3.64
- pKd (Inadl_5, Q8NI35; [2]): below the threshold
- pKd (DLG5_1, Q8TDM6; [2]): below the threshold
- pKd (NHERF2_2, Q15599; [2]): 4.84
- pKd (LNX2_2, Q8N448; [2]): below the threshold
- pKd (PDZRN3_1, Q9UPQ7; [2]): 3.94
- pKd (RAPGEF6, Q8TEU7; [2]): below the threshold
- pKd (HTRA3, P83110; [2]): below the threshold
- pKd (LAP2, Q96RT1; [2]): below the threshold
- pKd (DLG2_3, Q15700; [2]): below the threshold
- pKd (MAGI1_1, Q96QZ7; [2]): below the threshold
- pKd (LNX1_3, Q8TBB1; [2]): below the threshold

B3: CNKSR2, Q8WXI2 (peptide)
chain: HTHSYIETHV
- pKd (FRMPD3, Q5JV73; [3]): below the threshold
- pKd (MAGI2_3, Q86UL8; [3]): 3.98
- pKd (Inadl_10, Q8NI35; [3]): below the threshold
- pKd (DFNB31_3, Q9P202; [3]): below the threshold
- pKd (DLG3_3, Q92796; [3]): 4.01
- pKd (SNTB1, Q13884; [3]): 4.6
- pKd (TJP1_3, Q07157; [3]): below the threshold
- pKd (GRIP2_4, Q9C0E4; [3]): below the threshold
- pKd (APBA2_1, Q99767; [3]): below the threshold
- pKd (FRMPD2_2, Q68DX3; [3]): 4.83
- pKd (Inadl_4, Q8NI35; [3]): below the threshold
- pKd (MAGI2_5, Q86UL8; [3]): 4.83
- pKd (ARHGAP21, Q5T5U3; [3]): below the threshold
- pKd (GRIP1_4, Q9Y3R0; [3]): below the threshold
- pKd (APBA1_2, Q02410; [3]): 4.16
- pKd (Inadl_5, Q8NI35; [3]): below the threshold
- pKd (DLG5_1, Q8TDM6; [3]): below the threshold
- pKd (NHERF2_2, Q15599; [3]): below the threshold
- pKd (LNX2_2, Q8N448; [3]): 3.99
- pKd (PDZRN3_1, Q9UPQ7; [3]): 3.8
- pKd (RAPGEF6, Q8TEU7; [3]): below the threshold
- pKd (HTRA3, P83110; [3]): below the threshold
- pKd (LAP2, Q96RT1; [3]): 5.51
- pKd (DLG2_3, Q15700; [3]): 4.54
- pKd (MAGI1_1, Q96QZ7; [3]): below the threshold
- pKd (LNX1_3, Q8TBB1; [3]): below the threshold

B4: LRP4, O75096 (peptide)
chain: ERKLSSESQV
- pKd (FRMPD3, Q5JV73; [2]): below the threshold
- pKd (MAGI2_3, Q86UL8; [2]): below the threshold
- pKd (Inadl_10, Q8NI35; [2]): below the threshold
- pKd (DFNB31_3, Q9P202; [2]): below the threshold
- pKd (DLG3_3, Q92796; [2]): 3.51
- pKd (SNTB1, Q13884; [2]): 4.05
- pKd (TJP1_3, Q07157; [2]): below the threshold
- pKd (GRIP2_4, Q9C0E4; [2]): below the threshold
- pKd (APBA2_1, Q99767; [2]): below the threshold
- pKd (FRMPD2_2, Q68DX3; [2]): 3.48
- pKd (Inadl_4, Q8NI35; [2]): below the threshold
- pKd (MAGI2_5, Q86UL8; [2]): 4.08
- pKd (ARHGAP21, Q5T5U3; [2]): below the threshold
- pKd (GRIP1_4, Q9Y3R0; [2]): below the threshold
- pKd (APBA1_2, Q02410; [2]): below the threshold
- pKd (Inadl_5, Q8NI35; [2]): below the threshold
- pKd (DLG5_1, Q8TDM6; [2]): below the threshold
- pKd (NHERF2_2, Q15599; [2]): below the threshold
- pKd (LNX2_2, Q8N448; [2]): below the threshold
- pKd (PDZRN3_1, Q9UPQ7; [2]): below the threshold
- pKd (RAPGEF6, Q8TEU7; [2]): below the threshold
- pKd (HTRA3, P83110; [2]): below the threshold
- pKd (LAP2, Q96RT1; [2]): 3.74
- pKd (DLG2_3, Q15700; [2]): 4.11
- pKd (MAGI1_1, Q96QZ7; [2]): below the threshold
- pKd (LNX1_3, Q8TBB1; [2]): below the threshold
